Test results as given in patent publication US20140242093A1, “METHODS AND COMPOSITIONS FOR MODULATING THE INNATE IMMUNE RESPONSE AND/OR MYOGENESIS IN A MAMMALIAN SUBJECT” (FRED HUTCHINSON CANCER RESEARCH CENTER, priority 2011, published 2014).

Test system: control human primary myoblasts
Test: Expression microarray of primary myoblasts transduced with lentivirus carrying DUX4-fl, DUX4-s or GFP
Procedure: Primary human myoblasts were collected and cultured as previously described (Snider et al., 2010). Primary myoblasts were maintained at or below 70% confluency for proliferation. For differentiation, cells were allowed to reach 95-100% confluency in growth medium. Once confluency was reached, the cells were changed to differentiation medium (F10 media supplemented with 1% horse serum, 10 μg/mL insulin, and 10 μg/mL transferrin, penicillin/streptomycin) and maintained for 4 days. Human RD cells were grown in DMEM in 10% bovine calf serum (Hyclone) and penicillin/streptomycin. The primary myoblasts were transduced with lentivirus carrying DUX-fl, DUX4- or GFP (MOI=15).
Expression microarrays were performed on the transduced cells at 24 hours after transduction as follows. […] Samples were analyzed by Illumina Human Whole Genome microarrays. Probe intensities were corrected, normalized, and summarized by the Lumi package of Bioconductor (Du et al., 2008). Differentially expressed genes were identified by the LIMMA package of Bioconductor (Wettenhall and Smyth, 2004). Gene set enrichment analysis (GSEA) was performed using the Bioconductor GOstats package (Falcon and Gentleman, 2007).

B1: DUX4-s: short splice form of DUX4 (SEQ ID NO:112), keeps the double-homeobox domains, lacks the C-terminal activation domain (protein, listed as Homo sapiens)
chain: MALPTPSDSTLPAEARGRGRRRRLVWTPSQSEALRACFERNPYPGIATRERLAQAIGIPEPRVQIWFQNERSRQLRQHRRESRPWPGRRGPPEGRRKRTAVTGSQTALLLRAFEKDRFPGIAAREELARETGLPESRIQIWFQNRRARHPGQGGRAPAQV
- IFITM3 expression fc (Refseq NM_021034.2, cultured human skeletal muscle): −0.1274
- NEFH expression fc (Refseq NM_021076.2): 0.09952
- fc of SLC8A1 (expression array) (Refseq NM_021097.2): 1.046
- PSAT1 fc (Refseq NM_021154.3): 0.7365
- RAB40C fc (Refseq NM_021168.2): −0.07138
- fc of SLC30A1 (expression array) (Refseq NM_021194.2): 1.236
- CTDSP1 fc (Refseq NM_021198.1): 0.04155
- ARHGAP22 fc (Refseq NM_021226.2): 0.07773
- fc of NTN4 (expression array) (Refseq NM_021229.3): 0.03724
- PELI2 expression fc (Refseq NM_021255.2): −0.3732
- PLEKHA2 fc (Refseq NM_021623.1): 0.062
- AVPI1 expression fc (Refseq NM_021732.1): 0.1884
- fc of FAM3A (expression array) (Refseq NM_021806.1): −0.1833
- APOBEC3G expression fc (Refseq NM_021822.1, cultured human skeletal muscle): 1.408
- fc of C14orf93 (expression array) (Refseq NM_021944.1): −0.1073
- HSPA2 expression fc (Refseq NM_021979.3): −0.2546
- CXCL16 fc (Refseq NM_022059.1): 1.184
- NOD2 fc (Refseq NM_022162.1): 0.4347
- IFIH1 expression fc (Refseq NM_022168.2, cultured human skeletal muscle): 1.659
- HS1BP3 fc (Refseq NM_022460.3): 0.05143
- C14orf173 fc (Refseq NM_022489.2): −0.2714
- FEZ1 fc (Refseq NM_022549.2): 0.19
- HIPK2 fc (Refseq NM_022740.2): 0.3559
- fc of MOSC1 (expression array) (Refseq NM_022746.2): −0.1084
- PARP12 expression fc (Refseq NM_022750.2, cultured human skeletal muscle): 0.7767
- CRTC3 fc (Refseq NM_022769.3): −0.1184
- FAM129B fc (Refseq NM_022833.2): 0.4382
- IFI6 expression fc (Refseq NM_022872.2, cultured human skeletal muscle): −0.03611
- FGFR3 expression fc (Refseq NM_022965.1): 0.04147
- PRAMEF1 expression fc (Refseq NM_023013.1): 0.0691
- PRAMEF2 expression fc (Refseq NM_023014.1): −0.04937
- C8orf33 expression fc (Refseq NM_023080.1): −0.06075
- GRAMD3 fc (Refseq NM_023927.1): 0.3772
- NEUROG2 expression fc (Refseq NM_024019.2): −0.004473
- NUP37 fc (Refseq NM_024057.2): −0.1339
- PRRG4 expression fc (Refseq NM_024081.4): 0.2096
- TRIM48 expression fc (Refseq NM_024114.2): −0.07954
- DHX58 expression fc (Refseq NM_024119.2, cultured human skeletal muscle): 0.6965
- PRKAG2 fc (Refseq NM_024429.1): 0.7547
- fc of FAM65A (expression array) (Refseq NM_024519.2): −0.1263
- fc of ZC3HAV1 (expression array) (Refseq NM_024625.3): 1.471
- YRDC expression fc (Refseq NM_024640.3): 0.000579
- NPEPL1 fc (Refseq NM_024663.3): −0.2631
- SNIP1 expression fc (Refseq NM_024700.2): −0.174
- fc of FAM57A (expression array) (Refseq NM_024792.1): −0.003135
- C13orf34 expression fc (Refseq NM_024808.2): −0.002127
- fc of NUDT18 (expression array) (Refseq NM_024815.3): 0.1692
- fc of ZNF672 (expression array) (Refseq NM_024836.1): −0.1481
- C14orf159 expression fc (Refseq NM_024952.5, cultured human skeletal muscle): 0.5194
- NRSN2 fc (Refseq NM_024958.1): 0.06807
- SLC24A6 fc (Refseq NM_024959.2): 0.0001018
- CSRNP3 expression fc (Refseq NM_024969.2): −0.07941
- fc of ULBP1 (expression array) (Refseq NM_025218.2): 0.6193
- C6orf148 expression fc (Refseq NM_030568.2): −0.1046
- KLHL15 expression fc (Refseq NM_030624.1): 0.7742
- fc of ZBP1 (expression array) (Refseq NM_030776.1): 1.187
- SLC2A10 fc (Refseq NM_030777.3): −0.3197
- SYNC1 fc (Refseq NM_030786.1): −0.2508
- PDRG1 expression fc (Refseq NM_030815.2): 0.0622
- UNC93B1 expression fc (Refseq NM_030930.2, cultured human skeletal muscle): 0.9411
- PPP1R14C expression fc (Refseq NM_030949.2): −0.01369
- TRIM56 fc (Refseq NM_030961.1): 0.3086
- fc of RNF146 (expression array) (Refseq NM_030963.2): 0.1463
- ADPGK expression fc (Refseq NM_031284.3): 0.09196
- C11orf68 fc (Refseq NM_031450.2): 0.3616
- FAM107B expression fc (Refseq NM_031453.2): −0.1841
- PARP9 expression fc (Refseq NM_031458.1, cultured human skeletal muscle): 0.4426
- IFI27L2 fc (Refseq NM_032036.2): −0.02949
- SFRS2B expression fc (Refseq NM_032102.2): −0.3335
- fc of ATRIP (expression array) (Refseq NM_032166.2): 0.002138
- CEP78 expression fc (Refseq NM_032171.1): −0.1396
- SON expression fc (Refseq NM_032195.1): −0.2838
- LARP1B expression fc (Refseq NM_032239.2): −0.2602
- MED10 expression fc (Refseq NM_032286.2): 0.5994
- C1orf57 fc (Refseq NM_032324.1): 0.3544
- ELOF1 expression fc (Refseq NM_032377.3): −0.3008
- fc of C15orf48 (expression array) (Refseq NM_032413.2): 1.653
- PKIB expression fc (Refseq NM_032471.4): −0.1719
- KBTBD8 expression fc (Refseq NM_032505.1): 0.01077
- TMEM185A expression fc (Refseq NM_032508.1): 0.2327
- PARD6G fc (Refseq NM_032510.3): −0.01049
- fc of EBPL (expression array) (Refseq NM_032565.2): −0.0901
- fc of ACCS (expression array) (Refseq NM_032592.3): −0.1557
- RBBP6 expression fc (Refseq NM_032626.5): −0.1339
- SPRYD5 expression fc (Refseq NM_032681.1): −0.07702
- fc of SPPL2A (expression array) (Refseq NM_032802.3): 1.124
- ATOH8 expression fc (Refseq NM_032827.4, cultured human skeletal muscle): −0.2886
- CORO6 fc (Refseq NM_032854.2): −0.3004
- fc of TIGD5 (expression array) (Refseq NM_032862.2): −0.2163
- CASP6 expression fc (Refseq NM_032992.2): 0.2336
- TRIM5 fc (Refseq NM_033034.1): 0.5003
- EPSTI1 expression fc (Refseq NM_033255.2, cultured human skeletal muscle): 0.6618
- TP53INP1 fc (Refseq NM_033285.2): −0.5734
- CASP1 fc (Refseq NM_033294.2): 2.171
- PRIC285 expression fc (Refseq NM_033405.2, cultured human skeletal muscle): 0.8634
- ZNF622 expression fc (Refseq NM_033414.2): 0.01403
- PANX2 expression fc (Refseq NM_052839.2): 0.2001
- fc of C20orf72 (expression array) (Refseq NM_052865.2): −0.05254
- fc of GBP5 (expression array) (Refseq NM_052942.2): 1.314
- fc of ALPK2 (expression array) (Refseq NM_052947.3): −1.08
- fc of ANTXR1 (expression array) (Refseq NM_053034.1): 0.3595
- AP1S1 fc (Refseq NM_057089.2): −0.1404
- CCNE1 expression fc (Refseq NM_057182.1): −0.1277
- FBXO32 fc (Refseq NM_058229.2): 0.7666
- CCNT2 expression fc (Refseq NM_058241.1): −0.3221
- SLC44A1 fc (Refseq NM_080546.3): 0.7801
- fc of C2orf28 (expression array) (Refseq NM_080592.2): −0.07859
- DYNLL2 expression fc (Refseq NM_080677.1): 0.6521
- HOM-TES-103 fc (Refseq NM_080731.1): −0.3166
- ZNF280A expression fc (Refseq NM_080740.3): 0.05889
- C20orf127 expression fc (Refseq NM_080757.1, cultured human skeletal muscle): 0.4401
- fc of PTPRA (expression array) (Refseq NM_080841.2): 0.04113
- ASB5 fc (Refseq NM_080874.2): −0.4567
- APBB3 expression fc (Refseq NM_133172.2, cultured human skeletal muscle): 0.03992
- fc of DIS3L (expression array) (Refseq NM_133375.2): −0.2728
- C6orf117 expression fc (Refseq NM_138409.1): −0.06998
- fc of SDSL (expression array) (Refseq NM_138432.2): −0.09243
- TRIM43 expression fc (Refseq NM_138800.1): 0.02385
- CMBL expression fc (Refseq NM_138809.3, cultured human skeletal muscle): 0.06858
- fc of FGD4 (expression array) (Refseq NM_139241.1): 1.214
- ANGPTL4 fc (Refseq NM_139314.1): 1.267
- MBD3L2 expression fc (Refseq NM_144614.2): 0.02684
- JSRP1 fc (Refseq NM_144616.2): −0.4661
- fc of PPM1M (expression array) (Refseq NM_144641.1): −0.2381
- fc of C1orf58 (expression array) (Refseq NM_144695.2): 1.054
- FXYD5 fc (Refseq NM_144779.1): 0.09461
- Cllorf82 expression fc (Refseq NM_145018.2): −0.2738
- CDC42EP5 fc (Refseq NM_145057.2): 0.1387
- SPATA18 expression fc (Refseq NM_145263.2, cultured human skeletal muscle): −0.214
- MOBKL2C fc (Refseq NM_145279.4): 0.1274
- ZNF296 expression fc (Refseq NM_145288.1): 0.1758
- fc of MGST1 (expression array) (Refseq NM_145792.1): 0.2271
- OSBPL7 fc (Refseq NM_145798.2): −0.3669
- TP53I3 expression fc (Refseq NM_147184.1, cultured human skeletal muscle): 0.192
- fc of GJD3 (expression array) (Refseq NM_152219.3): 0.8646
- ACPL2 fc (Refseq NM_152282.3): 0.1468
- fc of C1orf131 (expression array) (Refseq NM_152379.2): −0.08789
- fc of PPM1K (expression array) (Refseq NM_152542.2): 1.44
- C12orf50 expression fc (Refseq NM_152589.1): −0.02137
